In patent US7211395 (dated 2007) one finds Kd data, which are given here for one molecule.

What is called Kd is a measure of binding affinity in units of concentration.

The target in one assay is T1, pig serum albumin (pig, UniProt P08835).
T1 chain: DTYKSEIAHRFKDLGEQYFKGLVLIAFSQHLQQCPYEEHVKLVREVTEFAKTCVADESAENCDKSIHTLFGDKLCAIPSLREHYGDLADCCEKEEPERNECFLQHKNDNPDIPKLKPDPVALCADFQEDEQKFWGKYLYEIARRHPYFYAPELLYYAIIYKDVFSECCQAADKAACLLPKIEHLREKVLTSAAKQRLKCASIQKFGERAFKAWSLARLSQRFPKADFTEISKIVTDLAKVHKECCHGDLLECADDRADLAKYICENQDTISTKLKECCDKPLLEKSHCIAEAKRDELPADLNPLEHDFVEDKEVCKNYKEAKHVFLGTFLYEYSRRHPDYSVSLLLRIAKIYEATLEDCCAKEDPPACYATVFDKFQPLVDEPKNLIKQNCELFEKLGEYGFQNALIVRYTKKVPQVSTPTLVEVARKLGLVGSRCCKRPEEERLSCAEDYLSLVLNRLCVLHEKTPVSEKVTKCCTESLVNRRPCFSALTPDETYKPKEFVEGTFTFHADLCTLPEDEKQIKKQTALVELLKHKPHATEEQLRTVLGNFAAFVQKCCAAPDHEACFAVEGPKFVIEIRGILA
Put plainly: FP, PBS pH 7.4.

For a further assay, the target named is T2, rhesus serum albumin (rhesus macaque, UniProt Q28522).
T2 chain: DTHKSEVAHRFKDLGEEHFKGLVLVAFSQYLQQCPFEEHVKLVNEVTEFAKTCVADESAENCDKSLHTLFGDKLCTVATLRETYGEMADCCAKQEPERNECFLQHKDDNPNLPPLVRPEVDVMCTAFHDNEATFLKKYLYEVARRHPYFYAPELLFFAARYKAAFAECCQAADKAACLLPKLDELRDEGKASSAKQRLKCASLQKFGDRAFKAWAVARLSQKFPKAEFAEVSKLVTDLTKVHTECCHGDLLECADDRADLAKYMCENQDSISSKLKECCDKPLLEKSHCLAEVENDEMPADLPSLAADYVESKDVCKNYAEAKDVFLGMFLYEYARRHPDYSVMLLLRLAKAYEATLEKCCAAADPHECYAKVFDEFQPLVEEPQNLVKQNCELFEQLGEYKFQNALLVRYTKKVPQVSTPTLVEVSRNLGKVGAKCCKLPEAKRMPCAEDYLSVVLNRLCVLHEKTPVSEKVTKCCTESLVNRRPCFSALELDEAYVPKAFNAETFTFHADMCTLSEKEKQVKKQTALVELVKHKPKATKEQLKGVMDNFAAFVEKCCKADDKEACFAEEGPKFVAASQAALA
Put plainly: FP, PBS pH 7.4.

A further assay deals with mouse serum albumin (mouse, UniProt P07724). The assay is described as follows: FP, pH 6.2, no NaCl.
mouse serum albumin, sequence (P07724 25-608): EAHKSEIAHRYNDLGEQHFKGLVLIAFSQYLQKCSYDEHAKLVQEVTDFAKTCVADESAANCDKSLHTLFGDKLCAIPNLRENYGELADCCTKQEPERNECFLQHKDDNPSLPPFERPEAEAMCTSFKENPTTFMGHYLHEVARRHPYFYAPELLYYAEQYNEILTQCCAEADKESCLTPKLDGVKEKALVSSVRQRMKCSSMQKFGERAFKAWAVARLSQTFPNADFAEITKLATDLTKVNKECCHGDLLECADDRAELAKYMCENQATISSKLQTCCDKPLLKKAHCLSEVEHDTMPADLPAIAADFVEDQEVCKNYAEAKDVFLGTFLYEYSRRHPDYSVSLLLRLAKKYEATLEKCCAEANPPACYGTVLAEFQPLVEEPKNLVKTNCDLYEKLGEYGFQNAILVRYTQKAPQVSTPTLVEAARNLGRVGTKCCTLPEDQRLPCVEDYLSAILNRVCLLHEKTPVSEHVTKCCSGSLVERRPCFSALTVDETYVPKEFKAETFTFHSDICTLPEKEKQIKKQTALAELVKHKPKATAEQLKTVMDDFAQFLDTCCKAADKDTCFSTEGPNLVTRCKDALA
For assay [1], the target named is T3, human serum albumin (HSA) (human, UniProt P02768). Put plainly: FP, pH 6.2, 0.14 M NaCl.
Assay [2] deals with T3, human serum albumin (HSA). Put plainly: FP, pH 7.4, 0.14 M NaCl.
The target of a further assay is T4, rat serum albumin (rat, UniProt P02770).
T4 chain: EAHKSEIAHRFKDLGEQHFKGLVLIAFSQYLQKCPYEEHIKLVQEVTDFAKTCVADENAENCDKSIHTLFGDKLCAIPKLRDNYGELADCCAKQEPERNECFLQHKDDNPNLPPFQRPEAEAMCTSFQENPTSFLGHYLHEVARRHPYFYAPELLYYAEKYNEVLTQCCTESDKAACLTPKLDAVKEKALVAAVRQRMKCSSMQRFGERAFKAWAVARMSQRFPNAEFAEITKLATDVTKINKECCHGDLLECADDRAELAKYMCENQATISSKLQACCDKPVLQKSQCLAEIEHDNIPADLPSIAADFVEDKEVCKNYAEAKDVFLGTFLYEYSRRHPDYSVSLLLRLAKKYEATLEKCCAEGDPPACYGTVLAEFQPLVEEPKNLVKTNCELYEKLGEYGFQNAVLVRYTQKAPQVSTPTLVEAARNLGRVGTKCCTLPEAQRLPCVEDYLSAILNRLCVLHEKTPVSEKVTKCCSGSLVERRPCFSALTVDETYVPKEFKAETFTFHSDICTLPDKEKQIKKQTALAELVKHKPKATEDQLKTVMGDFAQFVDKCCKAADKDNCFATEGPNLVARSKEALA
Put plainly: FP, PBS pH 7.4.

B1: DX-321 (peptide)
chain: AEGTGDRNMCKFSWIRSPAFCARADPEXK
modifications: disulfide cyclic, N-acetyl, C-amide, X = 6-aminohexanoic acid, fluorescein on Lys
On to B1, for which the Kd with pig serum albumin is more than 200 µM; in the assay with rhesus serum albumin it was 82 µM; in the assay with mouse serum albumin, more than 200 µM; in assay [1] it was 9 µM; in assay [2] it was 84 µM; in the assay with rat serum albumin, 117 µM.
